From patent publication US20190367578A1 (Novo Nordisk, published 2019)
One block for each molecule: values may come before it. *1 amine or outer side, *2 acyl side, *3 side chain or, on linkers, in order; H or OH if unused. Where no end group is shown, it is not given here. Side-chain parts run from the residue outwards. [ ]: non-standard residue; d: D form. The star is where a group is joined. C20 diacid = O=C(O)CCCCCCCCCCCCCCCCCCC(=O)*; C18 diacid = O=C(O)CCCCCCCCCCCCCCCCC(=O)*; γGlu = O=C(O)[C@H](CCC(=O)[*:2])N[*:1]; Nle = CCCC[C@H](N)C(=O)O; AEEA = NCCOCCOCC(=O)O; Aib = CC(C)(N)C(=O)O

Tests used:
Experiment in all cases: cell-based or functional assay
[1] = target: T1, human GIP receptor (human) (UniProt P48546)
T1 sequence (looked up): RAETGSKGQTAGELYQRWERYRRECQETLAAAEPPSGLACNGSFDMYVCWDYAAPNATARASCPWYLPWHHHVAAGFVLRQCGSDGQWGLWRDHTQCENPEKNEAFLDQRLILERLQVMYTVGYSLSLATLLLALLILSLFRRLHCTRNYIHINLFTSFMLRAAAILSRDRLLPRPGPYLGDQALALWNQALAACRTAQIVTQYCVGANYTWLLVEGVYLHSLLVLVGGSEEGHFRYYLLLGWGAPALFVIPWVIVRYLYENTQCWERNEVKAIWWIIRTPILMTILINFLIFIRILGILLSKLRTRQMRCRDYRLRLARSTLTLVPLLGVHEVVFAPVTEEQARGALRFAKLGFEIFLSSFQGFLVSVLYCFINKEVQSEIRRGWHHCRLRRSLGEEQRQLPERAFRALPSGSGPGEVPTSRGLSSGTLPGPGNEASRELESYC

[2] = target: human GLP-1 receptor (human) (UniProt P43220)
Chain of human GLP-1 receptor (human) (P43220 24-463): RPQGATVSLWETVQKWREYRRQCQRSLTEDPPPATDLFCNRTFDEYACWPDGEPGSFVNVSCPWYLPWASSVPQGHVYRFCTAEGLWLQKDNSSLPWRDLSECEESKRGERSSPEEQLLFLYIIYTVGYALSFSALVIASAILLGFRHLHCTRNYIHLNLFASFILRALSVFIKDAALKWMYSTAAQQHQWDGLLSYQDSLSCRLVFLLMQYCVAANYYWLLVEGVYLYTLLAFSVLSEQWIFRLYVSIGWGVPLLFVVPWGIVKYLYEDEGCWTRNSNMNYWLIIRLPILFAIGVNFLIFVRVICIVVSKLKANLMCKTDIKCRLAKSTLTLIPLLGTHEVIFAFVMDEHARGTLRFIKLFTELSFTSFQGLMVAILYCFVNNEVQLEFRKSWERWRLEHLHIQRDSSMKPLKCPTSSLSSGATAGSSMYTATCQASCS

[3] = target: human glucagon receptor (human) (UniProt P47871)
Chain of human glucagon receptor (human) (P47871 26-477): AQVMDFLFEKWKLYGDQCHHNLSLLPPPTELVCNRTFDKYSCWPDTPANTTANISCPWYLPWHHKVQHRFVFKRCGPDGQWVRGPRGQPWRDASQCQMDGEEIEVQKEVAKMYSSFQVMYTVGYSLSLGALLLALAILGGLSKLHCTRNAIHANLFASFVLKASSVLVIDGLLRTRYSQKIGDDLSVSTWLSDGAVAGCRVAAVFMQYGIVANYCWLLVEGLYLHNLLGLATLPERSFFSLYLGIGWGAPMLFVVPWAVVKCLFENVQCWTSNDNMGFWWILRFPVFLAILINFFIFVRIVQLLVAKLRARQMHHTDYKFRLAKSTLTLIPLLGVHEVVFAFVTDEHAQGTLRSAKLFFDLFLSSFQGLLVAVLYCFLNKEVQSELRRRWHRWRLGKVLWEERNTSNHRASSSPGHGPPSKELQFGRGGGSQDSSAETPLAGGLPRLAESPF

EC50 (pM), hGIP-R CRE Luc, 0.2% HSA [1]: 72.1 pM
Molecule: N{Epsilon-24}-[(4S)-4-carboxy-4-[[(4S)-4-carboxy-4-[[(4S)-4-carboxy-4-[[4-[(19-carboxynonadecanoylamino)methyl]cyclohexanecarbonyl]amino]butanoyl]amino]butanoyl]amino]butanoyl]-[Aib2,Nle14,Arg18,Lys24]-hGIP(1-31) (peptide)

EC50 (pM), hGIP-R CRE Luc, 0.2% HSA [1]: 61.5 pM
Molecule: N{Epsilon-24}-[(4S)-4-carboxy-4-[[(4S)-4-carboxy-4-[[(4S)-4-carboxy-4-[[4-[(19-carboxynonadecanoylamino)methyl]cyclohexanecarbonyl]amino]butanoyl]amino]butanoyl]amino]butanoyl]-[Aib2,Nle14,Arg18,Lys24,Pro31]-hGIP(1-31) amide (peptide)

EC50 (pM), hGIP-R CRE Luc, 0.2% HSA [1]: 26.1 pM | EC50 (pM), hGcg-R CRE Luc, 1% HSA (footnote *) [3]: > 100000 pM
Molecule: N{1}-acetyl,N{Epsilon-24}-[(4S)-4-carboxy-4-[[(4S)-4-carboxy-4-[[(4S)-4-carboxy-4-[[(4S)-4-carboxy-4-[[4-[(19-carboxynonadecanoylamino)methyl]cyclohexanecarbonyl]amino]butanoyl]amino]butanoyl]amino]butanoyl]amino]butanoyl]-[D-Tyr1,Aib2,Nle14,Arg18,Lys24,Pro31]-hGIP(1-31) amide (peptide)

EC50 (pM), hGIP-R CRE Luc, 0.2% HSA [1]: 135 pM
Molecule: N{1}-acetyl,N{Epsilon-24}-[(4S)-4-carboxy-4-[[(4S)-4-carboxy-4-[[(4S)-4-carboxy-4-[[4-[(19-carboxynonadecanoylamino)methyl]cyclohexanecarbonyl]amino]butanoyl]amino]butanoyl]amino]butanoyl]-[D-Tyr1,Aib2,Nle14,Arg18,Lys24]-hGIP(1-31) (peptide)

EC50 (pM), hGIP-R CRE Luc, 0.2% HSA [1]: 810 pM
B2: N{Epsilon-24}-[(4S)-4-carboxy-4-[[(4S)-4-carboxy-4-[[(4S)-4-carboxy-4-[[(4S)-4-carboxy-4-[[4-[(19-carboxynonadecanoylamino)methyl]cyclohexanecarbonyl]amino]buta … (peptide)
peptide: Y[Aib]EGTFISDYSIA[Nle]DKIHQEDFVK([γGlu-γGlu-γGlu-γGlu-4‑(aminomethyl)cyclohexanecarbonyl-C20 diacid])WLLAQKG

EC50 (pM), hGIP-R CRE Luc, 0.2% HSA [1]: 67.5 pM
B5: N{Epsilon-24}-[(4S)-4-carboxy-4-[[(4S)-4-carboxy-4-[[(4S)-4-carboxy-4-[[4-[(19-carboxynonadecanoylamino)methyl]cyclohexanecarbonyl]amino]butanoyl]amino]butanoyl … (peptide)
peptide: Y[Aib]EGTFISDYSIA[Nle]DKIHQQDFVK([γGlu-γGlu-γGlu-4‑(aminomethyl)cyclohexanecarbonyl-C20 diacid])WLLAQKP-NH2

The remaining lines, values behind:

Molecule: N{1}-acetyl,N{Epsilon-24}-[(4S)-4-carboxy-4-[[(4S)-4-carboxy-4-[[(4S)-4-carboxy-4-(17-carboxyheptadecanoylamino)butanoyl]amino]butanoyl]amino]butanoyl]-[D-Tyr1,Aib2,Nle14,Arg18,Lys24,Pro31]-hGIP(1-31) amide (peptide)
EC50 (pM), hGIP-R CRE Luc, 0.2% HSA [1]: 21.2 pM | EC50 (pM), hGLP-1-R CRE Luc, 0.2% HSA [2]: > 100000 pM

Molecule: N{1}-acetyl, N{Epsilon-24}-[(4S)-4-carboxy-4-[[(4S)-4-carboxy-4-[[(4S)-4-carboxy-4-(17-carboxyheptadecanoylamino)butanoyl]amino]butanoyl]amino]butanoyl]-[D-Tyr1,Aib2,Nle14,Arg18,Lys24]-hGIP(1-31) (peptide)
EC50 (pM), hGIP-R CRE Luc, 0.2% HSA [1]: 20.9 pM

Molecule: N{Epsilon-24}-[2-[2-[2-[[2-[2-[2-[[(4S)-4-carboxy-4-[[4-[(19-carboxynonadecanoylamino)methyl]cyclohexanecarbonyl]amino]butanoyl]amino]ethoxy]ethoxy]acetyl]amino]ethoxy]ethoxy]acetyl]-[Aib2,Nle14,Arg18,Lys24]-hGIP(1-31) (peptide)
EC50 (pM), hGIP-R CRE Luc, 0.2% HSA [1]: 44.7 pM

B1: N{Epsilon-24}-[(4S)-4-carboxy-4-[[(4S)-4-carboxy-4-[[(4S)-4-carboxy-4-[[4-[(19-carboxynonadecanoylamino)methyl]cyclohexanecarbonyl]amino]butanoyl]amino]butanoyl … (peptide)
peptide: Y[Aib]EGTFISDYSIA[Nle]DKIRQ[Aib]DFVK([γGlu-γGlu-γGlu-4‑(aminomethyl)cyclohexanecarbonyl-C20 diacid])WLLAQKG
EC50 (pM), hGIP-R CRE Luc, 0.2% HSA [1]: 71.2 pM

B3: N{Epsilon-24}-[(4S)-4-carboxy-4-[[(4S)-4-carboxy-4-[[(4S)-4-carboxy-4-(17-carboxyheptadecanoylamino)butanoyl]amino]butanoyl]amino]butanoyl]-[Aib2,Nle14,Lys24]-h … (peptide)
peptide: Y[Aib]EGTFISDYSIA[Nle]DKIHQQDFVK([γGlu-γGlu-γGlu-C18 diacid])WLLAQKG
EC50 (pM), hGIP-R CRE Luc, 0.2% HSA [1]: 49.9 pM | EC50 (pM), hGLP-1-R CRE Luc, 1% HSA (footnote *) [2]: > 100000 pM | EC50 (pM), hGcg-R CRE Luc, 1% HSA (footnote *) [3]: > 100000 pM

B4: N{1}-acetyl,N{Epsilon-24}-[(4S)-4-carboxy-4-[[(4S)-4-carboxy-4-[[(4S)-4-carboxy-4-[[4-[(19-carboxynonadecanoylamino)methyl]cyclohexanecarbonyl]amino]butanoyl]am … (peptide)
peptide: Ac-[dY]AEGTFISDYSIA[Nle]DKIHQ[Aib]DFVK([γGlu-γGlu-γGlu-4‑(aminomethyl)cyclohexanecarbonyl-C20 diacid])WLLAQKG
EC50 (pM), hGIP-R CRE Luc, 0.2% HSA [1]: 153 pM

B6: N{Epsilon-24}-[(4S)-4-carboxy-4-[[(4S)-4-carboxy-4-[[(4S)-4-carboxy-4-(17-carboxyheptadecanoylamino)butanoyl]amino]butanoyl]amino]butanoyl]-[Aib2,Nle14,Arg18,Gl … (peptide)
peptide: Y[Aib]EGTFISDYSIA[Nle]DKIRQEDFVK([γGlu-γGlu-γGlu-C18 diacid])WLLAQKG
EC50 (pM), hGIP-R CRE Luc, 0.2% HSA [1]: 62.9 pM

B7: N{1}-acetyl,N{Epsilon-24}-[(4S)-4-carboxy-4-[[(4S)-4-carboxy-4-[[(4S)-4-carboxy-4-(17-carboxyheptadecanoylamino)butanoyl]amino]butanoyl]amino]butanoyl]-[Nle14,A … (peptide)
peptide: Ac-YAEGTFISDYSIA[Nle]DKIRQQDFVK([γGlu-γGlu-γGlu-C18 diacid])WLLAQKG
EC50 (pM), hGIP-R CRE Luc, 0.2% HSA [1]: 546 pM

B8: N{1}-acetyl,N{Epsilon-24}-[2-[2-[2-[[2-[2-[2-[[(4S)-4-carboxy-4-[[(4S)-4-carboxy-4-[[(4S)-4-carboxy-4-(17-carboxyheptadecanoylamino)butanoyl]amino]butanoyl]amin … (peptide)
peptide: Ac-[dY]AEGTFISDYSIA[Nle]DKIRQQDFVK([AEEA-AEEA-γGlu-γGlu-γGlu-C18 diacid])WLLAQKG
EC50 (pM), hGIP-R CRE Luc, 0.2% HSA [1]: 43.1 pM

B9: N{1}-acetyl,N{Epsilon-24}-[(4S)-4-carboxy-4-[[(4S)-4-carboxy-4-[[(4S)-4-carboxy-4-[[4-[(19-carboxynonadecanoylamino)methyl]cyclohexanecarbonyl]amino]butanoyl]am … (peptide)
peptide: Ac-[dY]AEGTFISDYSIA[Nle]DKIRQQDFVK([γGlu-γGlu-γGlu-4‑(aminomethyl)cyclohexanecarbonyl-C20 diacid])WLLAQKG
EC50 (pM), hGIP-R CRE Luc, 0.2% HSA [1]: 180 pM
